# Experimental data: the supplement of paper PMC9112550, “Optimization of the antimicrobial peptide Bac7 by deep mutational scanning” (BMC Biology, 2022)
# Test system: Escherichia coli TOP10
# Experiment: shrunken log2 fold change of peptide-encoding DNA abundance (4.5 h post-induction vs induction); higher = less antimicrobial activity (less host growth inhibition)
# Conditions: time post-induction: 4.5 h; library: site-saturation at positions 5, 18, 19, 20
# 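Further: peptides expressed intracellularly from a pBAD plasmid library in pooled LB shake-flask culture, induced with 0.3% L-arabinose, DNA abundance read by NGS, three biological replicates, DESeq2 with apeglm shrinkage.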
row,Sequence,shrunken log2 fold change
1,RRIRLRPPRLPRPRPRPVFDPRP,-0.251
2,RRIRYRPPRLPRPRPRPQTYPRP,-0.755
3,RRIRGRPPRLPRPRPRPSSMPRP,-0.0636
4,RRIRLRPPRLPRPRPRPHCYPRP,0.011
5,RRIRNRPPRLPRPRPRPRFLPRP,0.0562
6,RRIRWRPPRLPRPRPRPSNQPRP,-0.561
7,RRIRGRPPRLPRPRPRPIDHPRP,0.115
8,RRIRHRPPRLPRPRPRPKIVPRP,0.00911
9,RRIRRRPPRLPRPRPRPCDNPRP,0.0406
10,RRIRWRPPRLPRPRPRPSYRPRP,-0.895
11,RRIRYRPPRLPRPRPRPRSFPRP,-0.0868
12,RRIRNRPPRLPRPRPRPPQNPRP,-0.0172
13,RRIRVRPPRLPRPRPRPACVPRP,-0.0412
14,RRIRGRPPRLPRPRPRPWGQPRP,0.204
15,RRIRYRPPRLPRPRPRPYDNPRP,-0.0463
16,RRIRARPPRLPRPRPRPPIRPRP,-0.131
17,RRIRWRPPRLPRPRPRPGDRPRP,0.468
18,RRIRRRPPRLPRPRPRPYKFPRP,0.0202
19,RRIRVRPPRLPRPRPRPRFRPRP,0.193
20,RRIRHRPPRLPRPRPRPGWRPRP,0.232
21,RRIRWRPPRLPRPRPRPLYMPRP,-0.684
22,RRIRPRPPRLPRPRPRPGFPPRP,0.355
23,RRIRERPPRLPRPRPRPYWPPRP,-0.249
24,RRIRTRPPRLPRPRPRPNHQPRP,-0.35
25,RRIRERPPRLPRPRPRPRLWPRP,0.0271

row,Sequence,shrunken log2 fold change
1,RRIRKRPPRLPRPRPRPKTQPRP,0.422
2,RRIRSRPPRLPRPRPRPRRTPRP,0.183
3,RRIRRRPPRLPRPRPRPSKCPRP,-0.47
4,RRIRIRPPRLPRPRPRPETIPRP,-0.115
5,RRIRKRPPRLPRPRPRPQGYPRP,-0.0839
6,RRIRYRPPRLPRPRPRPKIGPRP,-0.177
7,RRIRKRPPRLPRPRPRPICSPRP,-9.46e-05
8,RRIRVRPPRLPRPRPRPIDDPRP,-0.14
9,RRIRDRPPRLPRPRPRPHYPPRP,-0.265
10,RRIRARPPRLPRPRPRPKDIPRP,-0.00725
11,RRIRGRPPRLPRPRPRPWYLPRP,-0.575
12,RRIRHRPPRLPRPRPRPCPRPRP,-0.28
13,RRIRWRPPRLPRPRPRPFVFPRP,-0.0764
14,RRIRRRPPRLPRPRPRPNMYPRP,-0.16
15,RRIRGRPPRLPRPRPRPWNCPRP,-0.101
16,RRIRHRPPRLPRPRPRPEKNPRP,-0.0893
17,RRIRGRPPRLPRPRPRPSHLPRP,-0.158
18,RRIRMRPPRLPRPRPRPDPNPRP,0.0963
19,RRIRGRPPRLPRPRPRPRFMPRP,0.172
20,RRIRLRPPRLPRPRPRPTDNPRP,-0.391
21,RRIRIRPPRLPRPRPRPWAKPRP,-0.235
22,RRIRNRPPRLPRPRPRPTYVPRP,-0.143
23,RRIRMRPPRLPRPRPRPEMWPRP,2.4
24,RRIRHRPPRLPRPRPRPATAPRP,-0.0944
25,RRIRVRPPRLPRPRPRPSRTPRP,-0.47

row,Sequence,shrunken log2 fold change
1,RRIRKRPPRLPRPRPRPDFEPRP,0.0238
2,RRIRQRPPRLPRPRPRPSYQPRP,-0.635
3,RRIRSRPPRLPRPRPRPFLCPRP,-0.634
4,RRIRMRPPRLPRPRPRPYRGPRP,0.148
5,RRIRQRPPRLPRPRPRPKMAPRP,0.12
6,RRIRVRPPRLPRPRPRPSYQPRP,-0.34
7,RRIRPRPPRLPRPRPRPRWTPRP,0.399
8,RRIRPRPPRLPRPRPRPYTTPRP,-0.52
9,RRIRYRPPRLPRPRPRPNFKPRP,0.633
10,RRIRSRPPRLPRPRPRPNHDPRP,-0.69
11,RRIRPRPPRLPRPRPRPGDKPRP,-0.307
12,RRIRPRPPRLPRPRPRPKKDPRP,-0.151
13,RRIRWRPPRLPRPRPRPYVMPRP,-0.511
14,RRIRSRPPRLPRPRPRPKAHPRP,0.277
15,RRIRSRPPRLPRPRPRPDQNPRP,-0.182
16,RRIRMRPPRLPRPRPRPSFQPRP,-0.283
17,RRIRFRPPRLPRPRPRPALMPRP,-0.0289
18,RRIRWRPPRLPRPRPRPKGHPRP,0.108
19,RRIRQRPPRLPRPRPRPKEPPRP,0.0201
20,RRIRSRPPRLPRPRPRPANPPRP,0.11
21,RRIRDRPPRLPRPRPRPWVYPRP,-0.0138
22,RRIRLRPPRLPRPRPRPHFHPRP,-0.0565
23,RRIRMRPPRLPRPRPRPKEFPRP,0.103
24,RRIRDRPPRLPRPRPRPHHMPRP,-0.128
25,RRIRWRPPRLPRPRPRPGMTPRP,0.167

row,Sequence,shrunken log2 fold change
1,RRIRVRPPRLPRPRPRPGQIPRP,-0.0586
2,RRIRTRPPRLPRPRPRPTLAPRP,0.54
3,RRIRTRPPRLPRPRPRPCQWPRP,-0.107
4,RRIRRRPPRLPRPRPRPPGVPRP,0.704
5,RRIRMRPPRLPRPRPRPTWVPRP,0.496
6,RRIRERPPRLPRPRPRPHPWPRP,-0.392
7,RRIRCRPPRLPRPRPRPEYMPRP,0.0436
8,RRIRHRPPRLPRPRPRPQCCPRP,-0.00176
9,RRIRPRPPRLPRPRPRPYSQPRP,-1.06
10,RRIRKRPPRLPRPRPRPCIFPRP,-0.0101
11,RRIRHRPPRLPRPRPRPMCVPRP,-0.192
12,RRIRWRPPRLPRPRPRPYMVPRP,-0.844
13,RRIRDRPPRLPRPRPRPEMWPRP,2.04
14,RRIRCRPPRLPRPRPRPLYAPRP,-0.3
15,RRIRQRPPRLPRPRPRPPHAPRP,0.322
16,RRIRFRPPRLPRPRPRPKRVPRP,0.598
17,RRIRGRPPRLPRPRPRPSQQPRP,-0.147
18,RRIRSRPPRLPRPRPRPPACPRP,0.185
19,RRIRTRPPRLPRPRPRPHMSPRP,0.0303
20,RRIRTRPPRLPRPRPRPGGEPRP,0.443
21,RRIRSRPPRLPRPRPRPVKYPRP,-0.177
22,RRIRKRPPRLPRPRPRPFVTPRP,-0.0435
23,RRIRNRPPRLPRPRPRPIAVPRP,-0.0167
24,RRIRQRPPRLPRPRPRPIVKPRP,-0.108
25,RRIRVRPPRLPRPRPRPPLRPRP,0.93

row,Sequence,shrunken log2 fold change
1,RRIRARPPRLPRPRPRPTCVPRP,0.698
2,RRIRMRPPRLPRPRPRPHMHPRP,0.00917
3,RRIRARPPRLPRPRPRPMKCPRP,-0.0407
4,RRIRVRPPRLPRPRPRPCFGPRP,-0.263
5,RRIRVRPPRLPRPRPRPQMCPRP,0.00424
6,RRIRDRPPRLPRPRPRPSCNPRP,-0.493
7,RRIRYRPPRLPRPRPRPMEPPRP,-0.0132
8,RRIRMRPPRLPRPRPRPGYCPRP,0.0615
9,RRIRARPPRLPRPRPRPTITPRP,0.187
10,RRIRARPPRLPRPRPRPMWMPRP,0.0208
11,RRIRNRPPRLPRPRPRPPLPPRP,0.363
12,RRIRARPPRLPRPRPRPRQMPRP,1.2
13,RRIRFRPPRLPRPRPRPPIMPRP,-0.451
14,RRIRNRPPRLPRPRPRPCTTPRP,-0.213
15,RRIRERPPRLPRPRPRPAYSPRP,-0.0646
16,RRIRCRPPRLPRPRPRPNRFPRP,2.96
17,RRIRIRPPRLPRPRPRPNRKPRP,0.00157
18,RRIRERPPRLPRPRPRPQALPRP,-0.378
19,RRIRNRPPRLPRPRPRPIDAPRP,0.0153
20,RRIRMRPPRLPRPRPRPDACPRP,1.97
21,RRIRGRPPRLPRPRPRPEYDPRP,0.0795
22,RRIRDRPPRLPRPRPRPYKWPRP,-0.595
23,RRIRQRPPRLPRPRPRPWAPPRP,0.0985
24,RRIRVRPPRLPRPRPRPDTWPRP,-0.407
25,RRIRMRPPRLPRPRPRPLPLPRP,0.718

row,Sequence,shrunken log2 fold change
1,RRIRPRPPRLPRPRPRPEWWPRP,0.0468
2,RRIRHRPPRLPRPRPRPHHWPRP,-0.156
3,RRIRRRPPRLPRPRPRPPYWPRP,0.625
4,RRIRLRPPRLPRPRPRPTSCPRP,0.0575
5,RRIRERPPRLPRPRPRPNNQPRP,-0.59
6,RRIRMRPPRLPRPRPRPPDWPRP,1.7
7,RRIRARPPRLPRPRPRPKWVPRP,0.222
8,RRIRERPPRLPRPRPRPLYLPRP,-0.77
9,RRIRTRPPRLPRPRPRPPGKPRP,0.129
10,RRIRPRPPRLPRPRPRPPSCPRP,-0.058
11,RRIRNRPPRLPRPRPRPRWGPRP,-0.0125
12,RRIRARPPRLPRPRPRPAVYPRP,-0.079
13,RRIRHRPPRLPRPRPRPPQNPRP,0.613
14,RRIRYRPPRLPRPRPRPYNPPRP,-0.256
15,RRIRSRPPRLPRPRPRPKGAPRP,0.38
16,RRIRCRPPRLPRPRPRPDFSPRP,-0.377
17,RRIRHRPPRLPRPRPRPTGGPRP,0.0928
18,RRIRRRPPRLPRPRPRPSHWPRP,0.183
19,RRIRIRPPRLPRPRPRPVNVPRP,-0.404
20,RRIRFRPPRLPRPRPRPYLLPRP,-1.11
21,RRIRCRPPRLPRPRPRPGCRPRP,0.569
22,RRIRCRPPRLPRPRPRPPDDPRP,0.523
23,RRIRYRPPRLPRPRPRPPQCPRP,-0.32
24,RRIRYRPPRLPRPRPRPAIVPRP,-0.0768
25,RRIRLRPPRLPRPRPRPAAIPRP,-0.0299
